In one experiment the target is T1, HMG2 (UniProt P40673 2-209, limits assumed).
T1 construct: also called HMGB2; HMBG2
T1 sequence (looked up): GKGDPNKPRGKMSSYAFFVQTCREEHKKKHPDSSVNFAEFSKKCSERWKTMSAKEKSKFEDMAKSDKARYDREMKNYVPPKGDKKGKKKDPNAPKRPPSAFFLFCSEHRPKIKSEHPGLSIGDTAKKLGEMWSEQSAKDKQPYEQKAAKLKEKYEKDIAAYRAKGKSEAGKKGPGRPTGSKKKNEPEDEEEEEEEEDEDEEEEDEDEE
As to the kind of experiment: ELISA, wells coated with HMGB2 at 5 ug/mL, OD 490. The protocol: (§1) Binding to HMG1 vs. HMG2: Ultra high-binding ELISA plates (ThermoLab systems, #3855) were coated with either 5 ug/mL of Calf thymus HMGB1 or HMBG2 diluted in 10 mM Phosphate buffered saline (PBS), pH 7.2 and incubate overnight at 4 degrees. The plates were washed twice with Ca and Mg free PBS and 100 microliters of anti-HMGB1 antibody diluted in 10 mM PBS, pH 7.2+1% bovine serum albumin (BSA) to a final concentration of 10 ug/mL was added to each well and the plates were incubated 1 hour at room temperature. The wells were washed three times with 100 μl of PBS, pH 7.2. HRP labeled goat-anti-human IgG Kappa-chain (KPL, #14-10-10) and goat-anti-human IgG Lambda-chain (KPL, #14-10-11) were diluted in 10 mM PBS+1% BSA 1:1000 and 100 μl were added to each well and incubated for 1 hour at room temperature. The wells were then washed three times with 100 μl of PBS, pH 7.2. OPD substrate (Pierce chemical company, #34006) was prepared following the manufacturers instructions and 100 μl of prepared substrate was added to each well and the plates incubated at room temperature in the dark for 20-30 minutes. The reaction was stopped with the addition of 100 μl of 2M H₂SO₄, and the plates read on a plate reader at a wavelength of 490 nm.
For orientation: An ELISA detects its analyte on a solid surface through an enzyme-linked reagent.

Experiment [1] addresses T2, HMG1 B Box peptide amino acids 91-169.
T2 construct: also called HMG1 peptide 91-169
T2 peptide: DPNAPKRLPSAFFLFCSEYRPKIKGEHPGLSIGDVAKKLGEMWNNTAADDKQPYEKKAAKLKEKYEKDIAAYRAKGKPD
Put plainly: ELISA, wells coated with HMG1 B Box peptide 91-169 at 10 ug/ml. The procedure: (§2) The plate was then blocked with 4% milk powder dissolved in PBS at 37° C. for 1 hour. The blocking solution was removed and replaced with human anti-HMG1 antibodies at various concentrations (see FIGS. 5A-B). […] HRP activity was detected with Sureblue HRP substrate (KPL). Plates were read at 450 nm using a Kinetic Microplate Reader (Molecular Devices). […] After washing and blocking with 1% BSA in PBS, the biotinylated peptides were individually added into the avidin coated wells and incubated for 30 min at room temperature. The serial diluted antibody G4, S16 and S6 at the initial concentration at 10 μg/ml were then transferred into the wells followed by adding mouse anti human IgG-HRP conjugate (Pierce). Detection was accomplished by adding 50 μl of tetramethylbenzidine (TMB) substrate (KPL) and the absorbance was read at […].

In experiment [2] the target is T3, recombinant HMG1 purified from E. coli as a calmodulin binding protein (CBP) fusion protein (human, UniProt A9RA84 1-215 (Papio anubis entry)).
T3 sequence: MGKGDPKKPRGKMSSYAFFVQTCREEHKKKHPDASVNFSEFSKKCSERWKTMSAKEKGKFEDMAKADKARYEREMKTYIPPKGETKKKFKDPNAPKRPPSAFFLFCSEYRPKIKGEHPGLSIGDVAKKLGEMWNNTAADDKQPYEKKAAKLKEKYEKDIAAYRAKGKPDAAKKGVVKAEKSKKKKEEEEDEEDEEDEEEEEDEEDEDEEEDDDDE
Put plainly: cell-based or functional assay.

Experiment [3] concerns the target T4, HMG1 purified from bovine (calf) thymus (bovine, UniProt P10103 2-215).
T4 construct: also called Calf thymus HMGB1; thymus HMG1
T4 sequence (looked up): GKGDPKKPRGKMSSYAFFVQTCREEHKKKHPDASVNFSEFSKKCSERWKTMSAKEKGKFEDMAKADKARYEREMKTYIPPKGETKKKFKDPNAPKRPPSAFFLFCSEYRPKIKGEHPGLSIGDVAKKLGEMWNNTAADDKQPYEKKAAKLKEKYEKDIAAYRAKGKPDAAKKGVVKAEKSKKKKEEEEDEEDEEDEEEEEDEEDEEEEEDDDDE
Put plainly: ELISA, wells coated with calf thymus HMGB1 at 5 ug/mL, antibody at 10 ug/mL, anti-human kappa/lambda-HRP, OD 490. The procedure: as §1

The target in experiment [4] is T3, recombinant HMG1 purified from E. coli …. As to the kind of experiment: BIAcore, mAb immobilized, HMG1 injected, steady-state model. The procedure:
HMG1 Binding Affinity via BIAcore Analysis: All experiments were performed on a BIAcore 3000 instrument (BIAcore, Inc., Piscataway, N.J.). Briefly, each mAb was immobilized to a CM5 sensor chip using a standard amino coupling chemistry. Separately a reference (control) flow cell was also prepared. Two-fold, serial dilutions of HMG1 in instrument buffer were sequentially injected at a slow flow rate over the individual mAb and reference flow-cell surfaces. Following the binding and dissociation of HMG1, the mAbs surfaces were regenerated with a brief pulse of 1M NaCl-50 mM NaOH. At the end of each experiment, the binding curves were evaluated using a steady-state model available through the BIA evaluation software supplied by BIAcore, Inc. (Piscataway, N.J.).
Background: In SPR one partner is held on a chip, and binding of the other changes the refractive index at the surface.

Experiment [5] addresses T5, HMG1 B Box peptide amino acids 150-183.
T5 peptide: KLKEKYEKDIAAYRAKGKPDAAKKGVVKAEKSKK
Put plainly: ELISA, wells coated with HMG1 B Box peptide 150-183 at 10 ug/ml. The protocol:
as §2

B1: anti-HMG1 antibody G20 (antibody, V domains shown)
VH: EVQLLESGGGLVQPGGSLRLSCAASGFTFSWYDMFWVRQAPGKGLEWVSWISPSGGYTKYADSVKGRFTISRDNSKNTLYLQMNSLRAEDTAMYYCARSGLDYYDSSGYLDAFDIWGQGTMVTVSS
VL: DIQMTQSPSSVSASVGDRVTITCRASQDVSIWLAWYQQKPGKAPKLLIFGASRLQSGVPSRFSGSRSGADFTLTIDSVQPEDFASYYCQQADSFPLTFGGGTKVEIK
As for B1, the binding result with HMG2 is “no binding (tested: 10 ug/mL (not on the sheet))”. In addition, the binding result in experiment [1] is reported as “no binding (tested: 10 ug/ml (log 1.00))”. Further, in experiment [2], the “IC50, inhibition of HMG1 stimulated NO release from macrophages” value was 20.4 µg/mL; the “IC50, inhibition of rHMG1 stimulated IL-1β release from human PBMC” value was 0.4 µg/mL; the “IC50, inhibition of rHMG1 stimulated IL-6 release from human PBMC” value was determined as 0.652 nM; the “IC50, inhibition of rHMG1 stimulated TNF-α release from human PBMC” value was found to be 0.598 µg/mL. For the same molecule, the binding result in experiment [3] is “binds”.

B2: anti-HMG1 antibody G12 (antibody, V domains shown)
VH: EVQLLESGGGLVQPGGSLRLSCAASGFTFSYYMMTWVRQAPGKGLEWVSSISPSGGYTIYADSAKGRFTISRDNSKNTLYLQMNSLRAEDTAVYYCARALSTGSFWDYWGQGTLVTVSS
VL: DIQMTQSPGTLSLSPGERATLSCRASESLTSTYVAWYQHKPGQAPRLLIHGGSTRATGIPVRFSGSGSGTDFTLTIATLEPEDFAVYYCQQYGSSPYTFGQGTKLEIK
In general, Kd refers to the equilibrium constant for the complex coming apart. In the case of B2, the binding result in the experiment with HMG2 is “no binding (tested: 10 ug/mL (not on the sheet))”. The binding result in experiment [1] is reported as “no binding (tested: 10 ug/ml (log 1.00))”. Moreover, in experiment [4], the Kd is 73 nM. Besides, in experiment [2], the “IC50, inhibition of rHMG1 stimulated IL-1β release from human PBMC” value is 5.91 µg/mL; the “IC50, inhibition of rHMG1 stimulated IL-6 release from human PBMC” value amounted to 1.12 nM; the “IC50, inhibition of rHMG1 stimulated IL-12 release from human PBMC” value amounted to 2.79 µg/mL; the “IC50, inhibition of rHMG1 stimulated TNF-α release from human PBMC” value came to 0.796 µg/mL. The binding result in experiment [5] is on record as “no binding (tested: 10 ug/ml (log 1.00))”. In experiment [3], the binding result is “binds”.

B3: anti-HMG1 antibody G35 (antibody, V domains shown)
VH: EVQLLESGGGLVQPGGSLRLSCAASGFTFSWYKMVWVRQAPGKGLEWVSSIVPSGGITIYADSVKGRFTISRDNSKNTLYLQMNSLRAEDTAVYYCARVQQWLGRPYFDYWGQGTLVTVSS
VL: DIQMTQSPLSLPVTPGEPASISCRSSQSLLHGNGYNYLDWYLQRPGQSPQLLIYSGSNRASGVPDRFSGSGSGTDFTLKISRVEAEDVGVYYCMQSLQSRTFGQGTKVEIK
On to B3, for which the binding result in the experiment with HMG2 is “no binding (tested: 10 ug/mL (not on the sheet))”; in experiment [5], “no binding (tested: 10 ug/ml (log 1.00))”; in experiment [3] it was “binds”. Moreover, in experiment [4], the dissociation constant Kd is 242 nM. The “IC50, inhibition of rHMG1 stimulated IL-6 release from human PBMC” value in experiment [2] is 0.564 nM.

B4: anti-HMG1 antibody G34 (antibody, V domains shown)
VH: EVQLLESGGGLVQPGGSLRLSCAASGFTFSHYMMGWVRQAPGKGLEWVSRISPSGGGTVYADSVKGRFTISRDNSKNTLYLQMNSLRAEDTAVYYCARGGNWNYISYYYYYLDVWGKGTTVTVSS
VL: DIQMTQSPSSLSASVGDRVAITCRASQSIDTYLNWYQQKPGKAPKLLIYAASKLEDGVPSRFSGSGTGTDFTLTIRSLQPEDFASYFCQQSYSSPGITFGPGTKVEIK
For the molecule B4, the binding result in the experiment with HMG2 is “no binding (tested: 10 ug/mL (not on the sheet))”; in experiment [1], “no binding (tested: 10 ug/ml (log 1.00))”; in experiment [5] it was “no binding (tested: 10 ug/ml (log 1.00))”; in experiment [3], “binds”. Also, the Kd in experiment [4] amounted to 67 nM. Also, the “IC50, inhibition of rHMG1 stimulated IL-6 release from human PBMC” value in experiment [2] amounted to 0.858 nM.

B5: anti-HMG1 antibody G9 (antibody, V domains shown)
VH: EVQLLESGGGLVQPGGSLRLSCAASGFTFSSYDMFWVRQAPGKGLEWVSRISPSGGYTYYADSVKGRFTISRDNSKNTLYLQMNSLRAEDTAVYYCARLRYFDSRGYAFDIWGQGTMVTVSS
VL: DIQMTQSPGTLSLSPGERATLSCRASQSVRSSYLAWYQQKPGQAPRLLIYGASTRATGIPDRFSGSGSGTDFTLTISRLEPEDFAVYYCQQYGTSRWTFGQGTKVEIK
For the molecule B5, the binding result is “no binding (tested: 10 ug/mL (not on the sheet))” with HMG2, “no binding (tested: 10 ug/ml (log 1.00))” in experiment [1], “no binding (tested: 10 ug/ml (log 1.00))” in experiment [5] and “binds” in experiment [3]. Also, in experiment [4], the Kd stood at 125 nM. Moreover, the “IC50, inhibition of rHMG1 stimulated IL-1β release from human PBMC” value in experiment [2] stood at 0.211 µg/mL. Also, the “IC50, inhibition of rHMG1 stimulated IL-6 release from human PBMC” value in experiment [2] was 0.246 nM. Also, the “IC50, inhibition of rHMG1 stimulated TNF-α release from human PBMC” value in experiment [2] amounted to 0.248 µg/mL.

B6: anti-HMG1 antibody S14 (antibody, V domains shown)
VH: EVQLLESGGGLVQPGGSLRLSCAASGFTFSWYETGWVRQAPGKGLEWVSGISPSGGYTQYADSVKGRFTISRDNSKNTLYLQMNSLRAEDTAVYYCARSGVGATKIFDYWGQGTLVTVSS
VL: DIQMTQSPSSLSASVGDRVTIICRANERINTYLNWYQQKPGKAPKLLISGTSSLESGVPSRFSGSGSGTEFTLSISSLQPEDFASYYCQQSYSSPYTFGQGTNLEIR
As for B6, the binding result is listed as “no binding (tested: 10 ug/mL (not on the sheet))” with HMG2, “no binding (tested: 10 ug/ml (log 1.00))” in experiment [1], “no binding (tested: 10 ug/ml (log 1.00))” in experiment [5] and “binds” in experiment [3]. The Kd in experiment [4] was found to be 205 nM. Further, the “IC50, inhibition of rHMG1 stimulated IL-1β release from human PBMC” value in experiment [2] is 0.0678 µg/mL. In addition, the “IC50, inhibition of rHMG1 stimulated IL-6 release from human PBMC” value in experiment [2] is 0.191 nM. In experiment [2], the “IC50, inhibition of rHMG1 stimulated TNF-α release from human PBMC” value was found to be 0.0662 µg/mL.

Source of the values: patent publication US20080311122A1 (AstraZeneca / MedImmune, published 2008).
